Experimental findings from paper PMC12708652 (Nature Communications, 2025) are described below.

The target in the assay is P116 (residues 30–957), recombinant ectodomain of Mycoplasma pneumoniae P116 (Mycoplasma pneumoniae, UniProt P75556). The experiment in a line: cryo-EM structure.
Sequence of P116 (residues 30–957), recombinant ectodomain of Mycoplasma pneumoniae P116 (P75556 30-957): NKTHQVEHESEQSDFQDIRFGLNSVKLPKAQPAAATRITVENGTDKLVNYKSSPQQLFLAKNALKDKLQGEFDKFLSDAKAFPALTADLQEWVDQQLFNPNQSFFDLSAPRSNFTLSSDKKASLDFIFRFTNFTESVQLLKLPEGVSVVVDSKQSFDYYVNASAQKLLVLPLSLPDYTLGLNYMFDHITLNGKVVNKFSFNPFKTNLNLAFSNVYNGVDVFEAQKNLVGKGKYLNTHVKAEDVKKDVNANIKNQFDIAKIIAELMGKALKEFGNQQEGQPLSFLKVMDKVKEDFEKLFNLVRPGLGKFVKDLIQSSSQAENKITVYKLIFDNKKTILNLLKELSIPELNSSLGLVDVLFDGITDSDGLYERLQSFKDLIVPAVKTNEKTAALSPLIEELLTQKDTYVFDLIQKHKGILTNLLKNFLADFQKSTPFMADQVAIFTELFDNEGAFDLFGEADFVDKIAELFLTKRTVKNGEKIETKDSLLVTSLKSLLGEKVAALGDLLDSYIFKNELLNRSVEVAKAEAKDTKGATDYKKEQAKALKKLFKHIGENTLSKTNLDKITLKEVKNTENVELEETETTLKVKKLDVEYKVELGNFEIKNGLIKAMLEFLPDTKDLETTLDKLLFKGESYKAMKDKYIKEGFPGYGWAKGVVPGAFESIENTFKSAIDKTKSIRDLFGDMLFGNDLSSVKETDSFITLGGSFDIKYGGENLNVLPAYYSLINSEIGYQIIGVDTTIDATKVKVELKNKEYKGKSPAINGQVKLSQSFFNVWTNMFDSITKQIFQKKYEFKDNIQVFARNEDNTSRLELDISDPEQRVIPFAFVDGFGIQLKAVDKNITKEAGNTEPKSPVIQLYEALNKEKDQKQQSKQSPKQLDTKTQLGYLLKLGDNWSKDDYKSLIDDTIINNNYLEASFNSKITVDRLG

B1: monoclonal antibody (mAb) 3G9 against P116 (antibody, V domains shown)
VH: QVQLQQPGAELVKPGASVKLSCKASGYSFITYWMRWVRQRPGQGLEWIGQINPSNGHTNYDEKFKDRATLTVDKSSTTAYLQLSSLTSDDSAVYFCARSWEAMDYWGQGTSVTVSS
VL: DIVLTQSPATLSVTPGDSVSLSCRASQGISNNLHWYQQKSHESPRLLIKYASQSFSGIPSRFSGSGSGTVFTLTINSVETEDFGVYFCQQSYSWPIFTFGSGTNLQIK
On to B1, for which the binding result is listed as “binds”.
